Experiments:
Assay in all cases: single-cell, single-molecule pull-down
GFP::CDC-42 (C. elegans) = GFP::CDC-42 (C. elegans) (UniProt Q05062)
[1] = target: GFP::CDC-42(S71A) (C. elegans) (UniProt Q05062)
[2] = target: GFP::CDC-42(S71E) (C. elegans) (UniProt Q05062)

HaloTag::aPKC (from UniProt Q19266 1-597) (enzyme)
koff (GFP::CDC-42 (C. elegans)): 0.057 s⁻¹ | koff [1]: 0.057 s⁻¹ | koff [2]: 0.099 s⁻¹

— paper PMC10675845
